Blank lines part the entries; values can stand above or below the molecule they belong to.
Assays:
DnfA [1] = molecular target: T1, DnfA (Alcaligenes ammonioxydans, UniProt A0ABX8SXK4); assay: isothermal titration calorimetry; type: binding; details: 25 °C; hydroxylamine injected into enzyme
T1 construct: gene FE795_13025; full-length, 6xHis-tagged, pET-21a, E. coli BL21(DE3); dimer by gel filtration; diiron (residues Glu88, Glu123, His126, Glu182, His209, Glu213, His216)
T1 sequence (A0ABX8SXK4 1-317): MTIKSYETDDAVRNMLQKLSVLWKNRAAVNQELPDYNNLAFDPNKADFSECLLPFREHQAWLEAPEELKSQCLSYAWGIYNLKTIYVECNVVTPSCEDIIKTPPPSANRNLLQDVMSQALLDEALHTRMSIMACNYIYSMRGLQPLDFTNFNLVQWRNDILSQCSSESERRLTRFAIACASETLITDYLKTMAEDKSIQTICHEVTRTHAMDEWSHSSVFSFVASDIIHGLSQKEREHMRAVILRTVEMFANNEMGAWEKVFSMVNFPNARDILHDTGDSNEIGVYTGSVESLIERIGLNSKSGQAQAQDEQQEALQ

DnfA [2] = molecular target: T1, DnfA; assay: differential scanning fluorimetry; type: binding; details: 10 mM compound, 100 μg/ml DnfA, 20 mM Tris-HCl pH 8.0, SYPRO Orange
[3] = molecular target: DnfA hydroxylamine oxidase of Alcaligenes ammonioxydans HO-1 (Alcaligenes ammonioxydans HO-1); assay: SEC; gel filtration of native DnfA on Superdex 200 Increase 10/300 GL; mobile phase 20 mM Tris-HCl, 150 mM NaCl, pH 8.0; UV absorbance at 280 nm
[4] = substrate: NO; assay: Michaelis-Menten, nonlinear regression, N2-forming hydroxylamine oxidation; type: biochemical, Alcaligenes ammonioxydans; details: 10 μM DnfA, 100 μM FAD, 1 mM NADH, atmospheric O2, 15 to 400 μM NH2OH
Excerpt: Michaelis-Menten, nonlinear regression, N2-forming hydroxylamine oxidation on DnfA | the Michaelis–Menten constant (Km) for hydroxylamine

Molecule: NO [hydroxylamine]
isothermal titration calorimetry (DnfA [1]): none of them interacted with ammonia, but DnfA bound to hydroxylamine
differential scanning fluorimetry (DnfA [2]): DSF test demonstrated also that DnfA bound hydroxylamine

stoichiometry N [3]: 2
Molecule: DnfA hydroxylamine oxidase of Alcaligenes ammonioxydans HO-1 (enzyme)

B1: DnfA (Alcaligenes ammonioxydans) (protein)
chain: T1 sequence (A0ABX8SXK4 1-317)
notes: full-length, 6xHis-tagged, pET-21a, E. coli BL21(DE3); dimer by gel filtration; diiron (residues Glu88, Glu123, His126, Glu182, His209, Glu213, His216)
Km [4]: 92.9 ± 3.0 µM
kcat [4]: 0.028 ± 0.001 s⁻¹

From PMC9478400, “Identification and characterization of a novel hydroxylamine oxidase, DnfA, that catalyzes the oxidation of hydroxylamine to N2” (The Journal of Biological Chemistry, 2022)
